Measurements: the supplement of paper PMC9732359
± gives the uncertainty stated by the source.

Assay: protein stability index of a GFP-peptide fusion (yeast GPS) (PSI 1-4); higher = more stable; sorted into four equal gates, so the index is relative within each strain
Procedure, shortened: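 Sequencing reads from sorted gates were used to score each peptide. The library consisted of tiled 17-residue yeast protein peptides fused downstream of GFP on a Cherry-expressing plasmid, pooled and carried in yeast. Mid-log cultures in leucine-free medium were split into four equal gates by GFP/Cherry ratio, and each gate's plasmids were PCR-amplified and Illumina-sequenced. The protein stability index adds up, over all gates, the read frequency multiplied by the gate number.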

Sequence | protein stability index (doa10∆) | protein stability index (pdr5∆) | protein stability index (san1∆) | protein stability index (ubr1∆)
PLKLSGEGPFTVKFKHM [YMR129W/POM152] | 2.92 ± 0.064 | 2.93 ± 0.064 | 2.75 ± 0.086 | 2.72 ± 0.076
NHLDELQKKFVTKQSEL [SMC1] | 2.59 ± 0.11 | 3.06 ± 0.14 | 2.35 ± 0.21 | 2.72 ± 0.075
SQLNIQLSQDEHSQVEQ [SRP72] | 3.17 ± 0.06 | 3.07 ± 0.047 | 3.16 ± 0.048 | 3.05 ± 0.066
MAKSKNHTAHNQTRKAH [RPL29] | 1.7 ± 0.058 | 2.41 ± 0.08 | 1.96 ± 0.095 | 2.32 ± 0.067
KMENLMRLIKRVRAESL [YJL039C/NUP192] | 1.49 ± 0.083 | 1.19 ± 0.1 | 1.32 ± 0.23 | 1.12 ± 0.099
NDLGKFIPNKQLNCVID [RPN7] | 2.49 ± 0.13 | 2.85 ± 0.19 | 2.77 ± 0.17 | 3.05 ± 0.19
LEDPYKYHYKEEWLNTK [CSN9] | 2.88 ± 0.084 | 3.2 ± 0.083 | 2.83 ± 0.065 | 3.09 ± 0.072
SPLYMDTETFDTVNSAL [YML103C/NUP188] | 3.11 ± 0.14 | 3.27 ± 0.14 | 3.18 ± 0.074 | 3.21 ± 0.058
NDINISSIENNINNNIN [MED2] | 2.87 ± 0.044 | 3 ± 0.047 | 2.86 ± 0.041 | 3.11 ± 0.039
SSFEKFNDSQAIVCYIL [SRP72] | 2.43 ± 0.046 | 2.53 ± 0.047 | 2.42 ± 0.042 | 2.63 ± 0.031
SGYGKRKGTREARLPSQ [RPL19A] | – | 3.29 ± 0.28 | – | 3.49 ± 0.26
PSFTFGGSTTNNTTTTS [YOR098C/NUP1] | 3.04 ± 0.099 | 3.19 ± 0.091 | 3.08 ± 0.056 | 3.36 ± 0.073
DMQSSVDTGLQPQHPHY [YLR018C/POM34] | 2.56 ± 0.043 | 2.86 ± 0.039 | 2.96 ± 0.036 | 2.956 ± 0.029
GVWDVDNPLRQIPHFNN [BRR2] | 3.26 ± 0.077 | 3.24 ± 0.083 | 3.26 ± 0.065 | 3.13 ± 0.07
VVIDAFRLIDTGALINN [RPN11] | 1.27 ± 0.16 | 1.78 ± 0.17 | – | 1.11 ± 0.098
YHNKHMMCDFGTGNNNK [DIB1] | 2.7 ± 0.053 | 2.86 ± 0.055 | 2.73 ± 0.049 | 2.98 ± 0.041
REDMPFTAEGIVPDLII [RPB2] | 2.49 ± 0.092 | 3.42 ± 0.15 | 3.1 ± 0.093 | 2.79 ± 0.11
GLLSQAIGCIERSDLLP [YJR042W/NUP85] | 2.37 ± 0.07 | 2.37 ± 0.064 | 2.43 ± 0.09 | 2.51 ± 0.069
LNDRFQTLSSHLEALQP [PGD1] | 2.64 ± 0.04 | 2.69 ± 0.042 | 2.63 ± 0.04 | 2.54 ± 0.032
IKTRDACPLDNQPWQLA [HRT1] | 3.02 ± 0.085 | 2.66 ± 0.063 | 2.27 ± 0.073 | 3.12 ± 0.049

Sequence | protein stability index (doa10∆) | protein stability index (pdr5∆) | protein stability index (san1∆) | protein stability index (ubr1∆)
PPGLDALVKPETQFKLS [CDC53] | 2.82 ± 0.058 | 2.84 ± 0.055 | 3.07 ± 0.036 | 2.99 ± 0.046
TEIENYLLENNQVGTDE [YDL116W/NUP84] | 3.11 ± 0.11 | 2.9 ± 0.082 | 3.39 ± 0.072 | 2.84 ± 0.098
HRINMDKYHPGYFGKVG [RPL28] | 3.4 ± 0.074 | 3.41 ± 0.059 | 3.24 ± 0.061 | 3.24 ± 0.068
SPNFKNYLKYLEYWCNP [SOH1] | 2.32 ± 0.055 | 2.34 ± 0.056 | 1.88 ± 0.053 | 2.71 ± 0.06
LEDYVPHQSPDATRVFV [RPB2] | 2.82 ± 0.055 | 2.87 ± 0.055 | 2.97 ± 0.04 | 3.07 ± 0.04
IISRLNADFQKPWFATV [FAS1] | 2.27 ± 0.066 | 2.4 ± 0.063 | 2.1 ± 0.071 | 2.96 ± 0.069
SAHQSPIMQTQMPLNSN [SNF2] | 2.94 ± 0.11 | 2.37 ± 0.091 | 2.54 ± 0.075 | 2.17 ± 0.053
SFVKETKLHSGDYGEEE [SRB8] | 3.61 ± 0.23 | 3.22 ± 0.13 | – | 3.44 ± 0.1
SIDCLLILILVISFGQP [SWI1] | 1.85 ± 0.043 | 1.64 ± 0.034 | 1.52 ± 0.071 | 1.59 ± 0.029
MEDVKIQKEEEPENNTV [SWI3] | 3.31 ± 0.11 | 3.35 ± 0.073 | 3.41 ± 0.058 | 3.41 ± 0.057
MEMIENRTMDGKPVSLP [FAS1] | 3.38 ± 0.15 | 3.24 ± 0.22 | 2.75 ± 0.16 | 3.39 ± 0.096
LEGEEIKSEEKKGKSSD [RPN1] | 2.19 ± 0.077 | 2.17 ± 0.07 | 3.05 ± 0.084 | 2.4 ± 0.043
TTSRFSKQVTDYYQSIY [FAS2] | 2.77 ± 0.056 | 2.87 ± 0.071 | 2.47 ± 0.089 | 2.59 ± 0.05
SKRWAQRTLSKSFYSTA [CYT1] | 1.69 ± 0.052 | 2.32 ± 0.054 | 2.19 ± 0.063 | 2.22 ± 0.06
LGKQSSSLLSRLISSKM [FAS2] | 2.98 ± 0.065 | 2.94 ± 0.065 | 3.02 ± 0.078 | 2.7 ± 0.048
EVAKKRSRKTVKAQRPI [RPL24A] | 3.12 ± 0.097 | 3.29 ± 0.11 | 3.18 ± 0.15 | 3.17 ± 0.16
QYTQRLSKLEKALDRHE [SRP68] | 2.52 ± 0.046 | 2.65 ± 0.035 | 2.72 ± 0.039 | 2.66 ± 0.037
SIKDTQNVGQGKLQRKE [BRN1] | 1.96 ± 0.1 | 2.56 ± 0.081 | 1.94 ± 0.11 | 2.7 ± 0.049
MKPSEILSLIEEAAGTK [SMC2] | 3.24 ± 0.1 | 3.23 ± 0.084 | 3.22 ± 0.083 | 3.22 ± 0.064
